Source: patent US20190322748A1 (Hoffmann-La Roche, published 2019)
Like-named read-outs stand apart in the source and are kept apart here.

B1: PD1-0103-0312 (antibody, human IgG1, V domains shown)
VH: EVQLLESGGGLVQPGGSLRLSCAASGFSFSSYTMSWVRQAPGKGLEWVATISGGGRDIYYPDSVKGRFTISRDNSKNTLYLQMNSLRAEDTAVYYCVLLTGRVYFALDSWGQGTLVTVSS
VL: DIVMTQSPDSLAVSLGERATINCKASESVDTSDNSFIHWYQQKPGQSPKLLIYRSSTLESGVPDRFSGSGSGTDFTLTISSLQAEDVAVYYCQQNYDVPWTFGQGTKVEIK
notes: Humanized
B2: PD1-0103-0313 (antibody, human IgG1, V domains shown)
VH: B1 VH
VL: DVVMTQSPLSLPVTLGQPASISCRASESVDTSDNSFIHWYQQRPGQSPRLLIYRSSTLESGVPDRFSGSGSGTDFTLKISRVEAEDVGVYYCQQNYDVPWTFGQGTKVEIK
notes: Humanized
B3: PD1-0103-0315 (antibody, human IgG1, V domains shown)
VH: B1 VH
VL: EIVLTQSPATLSLSPGERATLSCRASESVDTSDNSFIHWYQQKPGQSPRLLIYRSSTLESGIPARFSGSGSGTDFTLTISSLEPEDFAVYYCQQNYDVPWTFGQGTKVEIK
notes: Humanized
B4: PD1-0103-0314 (antibody, human IgG1, V domains shown)
VH: B1 VH
VL: B3 VL
notes: Humanized
B5: 2+2 PD1TIM3_0358 (chimeric PD1-0103 / Tim3-0028) (bispecific antibody, human IgG1, kappa, L234A L235A)
heavy: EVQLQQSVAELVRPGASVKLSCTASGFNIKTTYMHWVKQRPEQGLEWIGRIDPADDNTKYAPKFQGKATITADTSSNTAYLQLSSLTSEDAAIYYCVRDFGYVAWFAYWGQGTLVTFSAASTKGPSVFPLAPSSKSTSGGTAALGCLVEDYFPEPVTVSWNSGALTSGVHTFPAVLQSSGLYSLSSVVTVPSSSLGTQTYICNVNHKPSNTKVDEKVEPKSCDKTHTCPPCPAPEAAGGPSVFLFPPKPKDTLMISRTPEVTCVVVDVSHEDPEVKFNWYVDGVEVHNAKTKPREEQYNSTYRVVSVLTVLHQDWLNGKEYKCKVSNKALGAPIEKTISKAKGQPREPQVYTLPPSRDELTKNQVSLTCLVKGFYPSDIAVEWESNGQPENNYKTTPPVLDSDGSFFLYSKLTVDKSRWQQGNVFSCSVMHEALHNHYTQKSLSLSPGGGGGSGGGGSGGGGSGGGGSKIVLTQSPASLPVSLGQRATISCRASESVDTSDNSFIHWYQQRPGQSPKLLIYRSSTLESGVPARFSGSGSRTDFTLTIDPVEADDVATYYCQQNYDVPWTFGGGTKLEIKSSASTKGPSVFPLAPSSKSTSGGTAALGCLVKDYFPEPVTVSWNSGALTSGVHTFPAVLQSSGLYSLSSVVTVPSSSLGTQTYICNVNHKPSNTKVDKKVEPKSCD
light 1: NIVMTPTPKFLPVSSGDRVTMTCRASQSVDNYVAWYQQKPGQSPKLLIYYASNRYIGVPDRFTGSGSGTDFTFTISSVQVEDLAVYFCQQHYSSPYTFGSGTKLEIKRTVAAPSVFIFPPSDRKLKSGTASVVCLLNNFYPREAKVQWKVDNALQSGNSQESVTEQDSKDSTYSLSSTLTLSKADYEKHKVYACEVTHQG
light 2: EVILVESGGGLVKPGGSLKLSCAASGFSFSSYTMSWVRQTPEKRLDWVATISGGGRDIYYPDSVKGRFTISRDNAKNTLYLEMSSLMSEDTALYYCVLLTGRVYFALDSWGQGTSVTVSSASVAAPSVFIFPPSDEQLKSGTASVVCLLNNFYPREAKVQWKVDNALQSGNSQESVTEQDSKDSTYSLSSTLTLSKADYEKHKVYACEVTHQGLSSPVTKSFNRGEC
notes: also called PD1TIM3-0358 (2 + 2); Bispec AB 0358 (2+2)

What was measured:
[1] = biological target: T1, biotinylated cynoPD1-ECD-Biotin (cynomolgus); test: ELISA on coated cynoPD1-ECD-Biotin
T1 construct: extracellular domain; also called cyPD1

[2] = biological target: T1, biotinylated cynoPD1-ECD-Biotin; test: ELISA, cynomolgus cross-reactivity
[3] = biological target: T2, biotinylated PD1-ECD-AviHis (human, UniProt Q15116 25-170, biotinylated, site not stated); test: ELISA on coated biotinylated PD1-ECD-AviHis
T2 construct: also called huPD1; hu PD1

[4] = biological target: T2, biotinylated PD1-ECD-AviHis; test: ELISA on coated biotinylated PD1-ECD-AviHis; remark: listed apart in the source
[5] = biological target: T3, full-length human PD1 on cells (CHO-K1 stably transfected with plasmid 15311_hPD1-fl_pUC_Neo) (human, UniProt Q15116 25-288); test: cell ELISA on CHO-K1 cells with full-length human PD1
T3 construct: Also used as the target of the MLR and reporter read-outs; also called CHO-PD1; PD1 on primary human T cells in the MLR

human PD1-ECD [6] = biological target: T4, human PD1-ECD (human, UniProt Q15116 25-170); test: SPR Biacore T200, Ab captured on anti-human IgG, 25 C
T4 construct: SPR analyte; also called hu PD1-ECD

human PD1-ECD [7] = biological target: T4, human PD1-ECD; test: SPR; row head 'Affinity KD 37°C [nM] *)', first of two values, footnote not explained
human PD1-ECD [8] = biological target: T4, human PD1-ECD; test: SPR; row head 'Affinity KD 37°C [nM] *)', second of two values (equals the 25 C value of Table 9)
[9] = biological target: T3, full-length human PD1 on cells (CHO-K1 …); test: cell-based or functional assay
[10] = biological target: T2, biotinylated PD1-ECD-AviHis; test: ELISA on coated biotinylated PD1-ECD-AviHis; remark: listed apart in the source
[11] = biological target: T5, biotinylated TIM3-ECD-AviHis (human, UniProt Q8TDQ0 22-202, biotinylated, site not stated); test: ELISA on coated biotinylated TIM3-ECD-AviHis
T5 construct: also called huTIM3; Hu TIM3

human PD1-ECD [12] = biological target: T4, human PD1-ECD; test: SPR Biacore T200, Ab captured on anti-human Fc IgG, hu PD1-ECD in solution, 25 C
monomeric human Tim3-ECD = biological target: T6, monomeric human Tim3-ECD (human, UniProt Q8TDQ0 22-202); test: SPR Biacore T200, Ab captured on anti-human Fab IgG, hu Tim3-ECD in solution, 25 C
T6 construct: SPR analyte; also called huTim3; hu Tim3-ECD

Row | Binder | EC50 [1] | EC50 [2] | EC50 [3] | EC50 [4] | EC50 [5] | Kd (human PD1-ECD [6]) | koff (human PD1-ECD [6]) | kon (human PD1-ECD [6]) | Kd (human PD1-ECD [7]) | Kd (human PD1-ECD [8]) | EC50 of IFN-gamma secretion in MLR, donors D1 + D3 [9] | EC50 of IFN-gamma secretion in MLR, donors D2 + D4 [9] | EC50 [10] | EC50 [11] | Kd (human PD1-ECD [12]) | Kd (monomeric human Tim3-ECD)
1 | B1 | 0.0083 µg/mL | 0.08 nM | 0.011 µg/mL | 0.1 nM | 0.0101 µg/mL | 1.8 nM | 0.000345 s⁻¹ | 195000 M⁻¹ s⁻¹ | 1.5 nM | 1.8 nM | – | – | – | – | – | –
2 | B2 | 0.011 µg/mL | 0.06 nM | 0.015 µg/mL | 0.07 nM | 0.0108 µg/mL | 2.3 nM | 0.000367 s⁻¹ | 160000 M⁻¹ s⁻¹ | 1.9 nM | 2.3 nM | – | – | – | – | – | –
3 | B3 | 0.0079 µg/mL | 0.04 nM | 0.01 µg/mL | 0.06 nM | 0.0073 µg/mL | 1.5 nM | 0.000291 s⁻¹ | 189000 M⁻¹ s⁻¹ | 1.7 nM | 1.5 nM | – | – | – | – | – | –
4 | B4 | 0.0083 µg/mL | 0.05 nM | 0.011 µg/mL | 0.07 nM | 0.0077 µg/mL | 1.5 nM | 0.000279 s⁻¹ | 187000 M⁻¹ s⁻¹ | 1.6 nM | 1.5 nM | – | – | – | – | – | –
5 | B5 | – | – | – | – | – | – | – | – | – | – | 6.8 nM | 5.7 nM | 0.08 nM | 0.19 nM | 0.3 nM | 240 nM
